The text below walks through data of article PMC8523169, “Competitive binding of MatP and topoisomerase IV to the MukB hinge domain”.

Data set [1] addresses T1, MatP4E (Escherichia coli, UniProt P0A8N0 1-132, K71E;Q72E;R75E;R77E).
T1 sequence: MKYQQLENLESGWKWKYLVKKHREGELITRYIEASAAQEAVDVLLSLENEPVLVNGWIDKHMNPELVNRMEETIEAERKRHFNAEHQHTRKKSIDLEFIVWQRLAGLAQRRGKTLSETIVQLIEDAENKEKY
The data set can be described thus: EMSA (native PAGE); 1 mM Mg2+; Native PAGE: 50 mM HEPES pH 7.5, 100 mM NaCl, 1 mM MgCl2, 1 mM DTT, 10% glycerol, on ice 30 min; FCS: 20 mM Tris-HCl pH 7.5, 50 mM NaCl, 0.3 mg/mL BSA, 2 mM DTT, 0.05% Tween-20, 22 °C; nMS buffer not given in the material. As to conditions: protein: recombinant; tags: C-terminal 6xHis; chain copies: 2; blunt. In general terms: In EMSA bound probe runs differently from free probe, usually more slowly.

Data set [2] deals with T2, MatP (MatPΔ18C) (Escherichia coli, UniProt P0A8N0 1-132).
T2 sequence: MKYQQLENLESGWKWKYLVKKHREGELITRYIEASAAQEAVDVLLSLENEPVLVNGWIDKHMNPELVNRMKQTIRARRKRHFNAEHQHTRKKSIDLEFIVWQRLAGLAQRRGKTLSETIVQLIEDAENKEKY
Put plainly: native MS; Native PAGE: 50 mM HEPES pH 7.5, 100 mM NaCl, 1 mM MgCl2, 1 mM DTT, 10% glycerol, on ice 30 min; FCS: 20 mM Tris-HCl pH 7.5, 50 mM NaCl, 0.3 mg/mL BSA, 2 mM DTT, 0.05% Tween-20, 22 °C; nMS buffer not given in the material. As to conditions: protein: recombinant; tags: C-terminal 6xHis; chain copies: 2; blunt.

B1: 50 bp nonspecific DNA (dsDNA)
DNA 1: CAGAGTTAATCACAACGGTTCTCGATCATCAAAGAAAAACAAGCTGTGCG
DNA 2: CGCACAGCTTGTTTTTCTTTGATGATCGAGAACCGTTGTGATTAACTCTG
With B1, the binding result in data set [1] is listed as “no binding”.

B2: 50 bp matS DNA (dsDNA)
DNA 1: CAGAGTTAATCAGAACGGTGACAATGTCACAAAGAAAAAGAACCTGTGCG
DNA 2: CGCACAGGTTCTTTTTCTTTGTGACATTGTCACCGTTCTGATTAACTCTG
B2: the results for the binding result in data set [2] and in data set [1] were “binds” and “no binding”, respectively.
